# Columns and labels:
# [1] = target: C-intein of Npu DnaE fused to 3' ABCA4 (set 1, from Cys1150), 3xflag (product of pzac-CMV260-3' ABCA4 intein) (Nostoc punctiforme; human) (UniProt P78363); assay: cell-based or functional assay
# [2] = target: C-intein of DnaE from Nostoc punctiforme fused to the C-terminal half of EGFP, 3xflag (product of pAAV2.1-CMV-3' EGFP intein) (Nostoc punctiforme); assay: cell-based or functional assay
Substance,"Full-length ABCA4 by Western blot band intensity, relative to the single AAV plasmid (HEK293, set 1) [1]","EGFP protein amount by Western blot band intensity, relative to a single AAV plasmid [2]"
"5' ABCA4 (set 1, split at Cys1150) fused to the N-intein of Npu DnaE, 3xflag (product of pzac-CMV260-5' ABCA4 intein) (from UniProt P78363 1-1150)",61%,
"N-terminal half of EGFP fused to the N-intein of DnaE from Nostoc punctiforme, 3xflag (product of pAAV2.1-CMV-5' EGFP intein)",,76%

# Source: patent US20210371878A1
